Publication PMC12529230, “The Lrs14‐Like AbfR1 Homolog From Metallosphaera sedula Is a Nucleoid‐Organizing Protein” (MicrobiologyOpen, 2025)

T1: AbfR1Ms (Metallosphaera sedula DSM5348, UniProt A4YIR2 1-115)
T1 sequence: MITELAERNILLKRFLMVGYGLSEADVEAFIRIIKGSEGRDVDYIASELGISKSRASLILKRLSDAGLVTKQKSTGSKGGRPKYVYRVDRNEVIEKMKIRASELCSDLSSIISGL

B1: AbfR1 Ms (recombinant, C-terminal His-tag) (natural protein, Metallosphaera sedula, UniProt A4YIR2 1-115, looked up)
chain: MITELAERNILLKRFLMVGYGLSEADVEAFIRIIKGSEGRDVDYIASELGISKSRASLILKRLSDAGLVTKQKSTGSKGGRPKYVYRVDRNEVIEKMKIRASELCSDLSSIISGL
notes: 115 amino acids, estimated MW 12.7 kDa; codon-optimized synthetic gene fragment (446 bp) cloned NdeI/XhoI into pET24a; No tag cleavage is described; A disulfide bridge between the two chains is proposed (C105, from an AlphaFold model and DTT sensitivity); also called Lrs14-like AbfR1 homolog from Metallosphaera sedula; HhcR; source: E. coli Rosetta (DE3), pET24a; purified (heat treatment 70°C, …)
B2: ORF abfR1Sa (dsDNA)
DNA 1: GTCTTTCTGAATCAGAAATAGACACATTTCTAAGGATACTTGAAAGCAAAGAAGGTAAGGATATTGATGCAATATCTGCAGAACTAAAAATTAGTAAAAG
DNA 2: CTTTTACTAATTTTTAGTTCTGCAGATATTGCATCAATATCCTTACCTTCTTTGCTTTCAAGTATCCTTAGAAATGTGTCTATTTCTGATTCAGAAAGAC

Key:
[1] = biological target: the molecule itself; experiment: SEC; Enrich SEC 650 10 x 300 column, 20 mM HEPES, 150 mM NaCl, 1 mM DTT, 5% glycerol, pH 7.5; AbfR1 Ms concentrated to 1.9 mg/mL; MW from a standard curve
AbfR1Ms = biological target: T1, AbfR1Ms; experiment: EMSA; apparent; salmon sperm competitor DNA; EMSA: 20 mM Tris-HCl pH 8.0, 50 mM NaCl, 0.4 mM EDTA, 0.1 mM DTT, 1 mM MgCl2, 12.5% glycerol, 25 ug/mL sonicated salmon sperm DNA, 25 min at 37 C; AFM: same buffer, 15 min at 37 C, then NiCl2/HEPES adsorption on mica; details: protein: recombinant; tags: C-terminal His; chain copies: 2; label: 5'-32P on one strand; blunt

Row | Binder | stoichiometry N [1] | Kd (AbfR1Ms)
1 | B1 | 2 | 
2 | B2 |  | 546 nM
